These results are taken from article PMC2915561 (Biochemistry, 2010).

Data set [1] deals with the molecule itself. The data set can be described thus: SEC. A general note: Size exclusion chromatography separates by hydrodynamic size, large species first.
Data set [2] deals with the molecule itself. As to the kind of experiment: SEC. This is another data set of the same source.
Data set [3] concerns the molecule itself. The data set can be described thus: SAXS.

B1: LovK (1–138) (domain or fragment, Caulobacter crescentus, UniProt Q9ABE3 1-138, looked up)
chain: MEDYSESRRAGERLAAGHGVDDPFAAAISATRMAMIVADATQPDIPIIFANDAFLRLTGYARDEVIGRNCRFLQGPDTDPKAIQAVRDALAAGEDVAVDLLNYRKDGSPFWNALNMSPVRNDAGQLVYFFGSQVDVTD
For orientation: stoichiometry N means a count of units in the complex or per binding partner. Regarding B1, the “stoichiometry N” value in data set [1] is 2.

B2: LovK (1–368), full-length Caulobacter crescentus LOV-histidine kinase (enzyme, UniProt Q9ABE3 1-368, looked up)
chain: MEDYSESRRAGERLAAGHGVDDPFAAAISATRMAMIVADATQPDIPIIFANDAFLRLTGYARDEVIGRNCRFLQGPDTDPKAIQAVRDALAAGEDVAVDLLNYRKDGSPFWNALNMSPVRNDAGQLVYFFGSQVDVTDKKVVELRARDHSDGLQQMVEERTRELTEALKQKTALLHEVDHRVKNNLQLISSLLLLQNRRVPDPAVKASLRGMLGRVNAIATVHRRLFQSEDVERFDVSAFIRDMVADLMGSAMRDDIRVELDLERVEIPAAKAAPLALVVNELLTNALRHGFPEGRGGRIFVGLSRLNGDFRIEITDDGVGQDRETRASGFGLTIVQLLCQQLKAKWETTDAEPGTRVVVLLPINGTQ
For the protein B2, the “stoichiometry N” value in data set [2] stood at 2.

B3: LovK C70A (1–368), full-length "blind" mutant (enzyme, Caulobacter crescentus, UniProt Q9ABE3 1-368, looked up)
chain: MEDYSESRRAGERLAAGHGVDDPFAAAISATRMAMIVADATQPDIPIIFANDAFLRLTGYARDEVIGRNARFLQGPDTDPKAIQAVRDALAAGEDVAVDLLNYRKDGSPFWNALNMSPVRNDAGQLVYFFGSQVDVTDKKVVELRARDHSDGLQQMVEERTRELTEALKQKTALLHEVDHRVKNNLQLISSLLLLQNRRVPDPAVKASLRGMLGRVNAIATVHRRLFQSEDVERFDVSAFIRDMVADLMGSAMRDDIRVELDLERVEIPAAKAAPLALVVNELLTNALRHGFPEGRGGRIFVGLSRLNGDFRIEITDDGVGQDRETRASGFGLTIVQLLCQQLKAKWETTDAEPGTRVVVLLPINGTQ
As to B3, the “stoichiometry N” value in data set [3] is 2.

B4: LovK (1–163) (domain or fragment, Caulobacter crescentus, UniProt Q9ABE3 1-163, looked up)
chain: MEDYSESRRAGERLAAGHGVDDPFAAAISATRMAMIVADATQPDIPIIFANDAFLRLTGYARDEVIGRNCRFLQGPDTDPKAIQAVRDALAAGEDVAVDLLNYRKDGSPFWNALNMSPVRNDAGQLVYFFGSQVDVTDKKVVELRARDHSDGLQQMVEERTRE
B4: the “stoichiometry N” value in data set [1] came to 2.

B5: LovK (25–163) (domain or fragment, Caulobacter crescentus, UniProt Q9ABE3 25-163, looked up)
chain: AAAISATRMAMIVADATQPDIPIIFANDAFLRLTGYARDEVIGRNCRFLQGPDTDPKAIQAVRDALAAGEDVAVDLLNYRKDGSPFWNALNMSPVRNDAGQLVYFFGSQVDVTDKKVVELRARDHSDGLQQMVEERTRE
For the protein B5, the “stoichiometry N” value in data set [1] is 2.

B6: LovK (25–138), isolated LOV core (domain or fragment, Caulobacter crescentus, UniProt Q9ABE3 25-138, looked up)
chain: AAAISATRMAMIVADATQPDIPIIFANDAFLRLTGYARDEVIGRNCRFLQGPDTDPKAIQAVRDALAAGEDVAVDLLNYRKDGSPFWNALNMSPVRNDAGQLVYFFGSQVDVTD
Turning to B6, the “stoichiometry N” value in data set [1] worked out at 2.
